Test results reported in the nanobody polyreactivity screen of Harvey et al. (2022).

Experiment: yeast display, Sf9 membrane polyspecificity reagent, FACS + sequencing; frameworks hold sequencing errors
Summary of the method: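 Nanobodies came from a synthetic yeast display library in Saccharomyces cerevisiae BJ5465, induced with galactose for 36–48 hours and stained for 1 hour at 4 °C with 10% biotinylated, detergent-solubilized Sf9 membrane reagent. Cells were enriched on streptavidin microbeads and then FACS-sorted, with low and high (top ~1%) gates set on anti-HA fluorescence for expression and streptavidin fluorescence for reagent binding. Each polyreactivity label reflects the gate a clone came from. Genes were amplified by colony PCR, sequenced by MiSeq 2 × 250 and filtered by CDR length.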

| Sequence | polyreactivity (PSR sort gate) |
| --- | --- |
| QVQLVESGGGLVQAGGSLRLSCAASGFIFSSNAMGWYRQAPGKEREFVAAISFRGGTTYYADSVKRRFTISRDNAKNTVYLQLNSLKPEDTAVYYCNAVRWRSGRWWWYDYWGQGTQVTVSS | low polyreactivity |
| QVQLVESGGCLVQAGGSLRLSCAASGSTFFSYAMGWYRQAPGKESEFVAANTYSSGRTYYADSVKGRFTISRDNAKNTVYLQMHSLKAEDSAVYSCSTPGFVWGRGYDYWGQGTHVTVSS | high polyreactivity |
| QVQLVESGGGLVQAGGSLRLSCAASGGTYVGYSMGWYRQAPGKERELDATITRRGGNTYYADSVKGRFTISRDNAKNTVYLQMNSLKPEDTAVYYCAARKKGSRVGYDYWGQGTQVTVSS | high polyreactivity |
| QVQLVESGGGLVQAGGSLRLSCAASGFTFSYYAMGWYRQAPAKEREVVAAISRSGGSTYYADSVKGRFTISRDNAKNTVYFQMNSLIPEDTAVYYCATDLYYRHGYCGQGTQVTVSS | high polyreactivity |
| QVQLVESGGGLVQAGGSLRLSCAASGSTFGWYAMGWYRQAPGKERELVATISTTGGRTYYADSVKGRFTISRDNAKNTVYLQMNSLKPEDTAVYYCAARAFYKRYFAFDYWGQGTQVTVSS | high polyreactivity |
| QVQLVESGGGIVQAGGSLRLSCAASGRTFVLNALGWYRQAPGKERELVAAITLGGGSTYADSVKGRFTISRDNAQNTVYLQMNSLKPEDTAVYYCAADFHYPDFEYWGQGTQVTVSS | low polyreactivity |
| QVQLVESGGGLVQAGGSLRLSCAASGSTFGPYTMGWYRQAAGKERELVAAITGGGDSTYYADSVKGRFTISRDNAKNTVYLQMNSLKPEDTAVYYCAAKKPTTRMGYWGQGTQVTVSS | low polyreactivity |
| QVQVVESGGGLVQAGGSLRLSCAASGSIFNQYAMGWHRQAPGKERELVAAISSDGGRTYYADSVKGRFTISRDNAKNTVYLQMNSLKPEDTAVYYCNADFPAYGLQGDDYWGQGTQVTVSS | low polyreactivity |
| QVQLVESAGGLVQAGGSLRLSCAASGRIFRANAMGWYRQAPGKERELVATIRNSGGITYYADSVKGRFTISRDHAKNTVYLQMNSLIPEDTAVYYCAKLGRYGYDYWGQGTQVTVSS | high polyreactivity |
| QVQLVESGGGLDPAGGSLRLSCAASGFTFYRNAMGWYRQAPGKERELVAGITRSGGSTYYADSVKGRFTISRDNAKNTVYLQMNSLKPEDTAVYYCNKAYGGVKYSGTYDYWGQGTQVTVSS | high polyreactivity |
| QVQLVESGGGLVQAGGSLRLICAASGYTFSYYAMGWYRQAPGKERELVAAINYSGGRTYYADSVKGRFTISRDNAKNTVYLQMNSLKPDDTAVYYCAAYTRNGDYDYWGQGTQVTVSS | high polyreactivity |
| QVQLVESGGGLVQAGGSLRLSCAASGRIFFAYAMGWYRQAQGKEREFVAAISDNDGSTYYADSVKGRFTISRDNAKNTVYLQMNSLKPEDTAVYYCNADLGYVYDYCGQGTQVTVSS | low polyreactivity |
| QDQLVESGGGLVQAGGSLRLSCAASGSIFYVNTMGWYRQAHGKERELVADISSGDSTYYADSVKGRFTISRDNAKNTVYLQMNSLKPEDTAVYYCIADVYSWVSGKEGDYWGQGTQVTVSS | low polyreactivity |
| HDQLVESGGGFVQAGGSLRLSCAASGSIFRYNPMGWYRQAPGKEMELVAAISYGGGITRYADSVKGRFTISRDNAKNTVYLQMNSLKPEDTAVYYCNKAYVWRRMDYWGQGTQVTVSS | high polyreactivity |
| QVQLVESGGGLVQPGGSLRLIFAASGSIFHYNAIGWYTQAPGKEREFVAVISKSSGSTFYADSVKGRFTISRDNAKNTVYLQMNSLKPEDTAVYYCNLVTKRYPIIGNYWGQGSQVTVSS | high polyreactivity |
| QVQLVESGGGLVQAGGSLRLSCAASGSIYIVNVMGWYRQAPGKERELVAGITTNGGITYYADSVKGRFTISRDNAKNTVYLQMNSLKPEDTAVYYCATRSGSPSSIEMDYWGQGTQVTVSS | low polyreactivity |
| QVQLVESGGGLVQAGGSLRLSCAASGFTFIRYAMGWYRQAPGKERELVASISNRGGRTYYADSVKGRFTISRDNAKNTVYLQMNSLKPEDTAVYYCAAGYSYAQYSYPFLSFAFGYWGQGTQVTVSS | high polyreactivity |
| QVQLVESGGGLVQAGGSLRLSCAASGRTSYGYAMGWYRQAPGKERELVAAITSSGGSTYYADSVKGRFTISRDNAKNTVYLEMNSLKPEDTAVYYCAASRVRYSYGYPYYYWGQGTQVTVSS | high polyreactivity |
| QVQLVESGGGLVQEGGSLRLSCAASGIIFPVYDMGWYRQAPGKERELVASITDSGGSTSYADSVKGRFTLSRDNAKNTVYLQMNSLKPEDTAVYYCAVTDSDTNYYGYLSYDYWGQGTQVTVSS | low polyreactivity |
| QVQLVESGGGLVQAGGSLRLSCAASGITFHGYAMGWYRQAPGKERELVAAISDSGSSTYYADSVKGRFTISRDNAKNTVYLQMNSLKPEDTAVYYCAAVSGFYDQYDYWGQGTQVTVSS | low polyreactivity |
| QVQLVESGGGLVQAGGSLRLSCAASGSTFSDYTMGWFRQAPGKERELVAAITTIGGSTYYADSVKGRFTISRDNAKNTVYLQMNSLKPEDTAVYYCAASYYYPLEYYYWGQGTQVTVSS | low polyreactivity |
| QVQLVESGGGLVQAGGSLRLSCAASGGTFVSYAMGWYRQAPGKERELVVAITYSGGSTYYADSVKGRFTISRDNAKNTVYLQMNRLKPEDTAVYYCAAPKFSYFSYSPRGKFKYEYWGQGTQVTVSS | low polyreactivity |

| Sequence | polyreactivity (PSR sort gate) |
| --- | --- |
| QVQLVDSGGGLVQAGGSLRLSCSASGRIFLRYPMGCYRQSPGKERELVAVITWSGGSTNYADSVKGRFTISRDNAKNTVYLQMNSLKPEDTAVYYCAVDNTGRSWPYDYWGQGTQVTVSS | low polyreactivity |
| QVQLVESGGRLVQAGGSLRLSCAASGRTFVSYAMGWYRQAPGKERELVATITGSTGGTYYADSVKGRFTISRDNAKNTVYLQMNSLKPEDTAVYYCNKDYYYNPGNVASGYDYWGHGTQVTVSS | low polyreactivity |
| QVQLVYSGGGLVQAGGSLRISCAPSGRTYRKYAMGWYIQAPGKERELVAANSRSGGSTYYANSVKGRFTISRDIAKNTFYLQMNSLKPDDTAVYYCAAVPVHTGSLYWGFTTGYDYWGQVTQVTVSS | low polyreactivity |
| QVHLVESGGGLVQAGGSLRLRCAASGIIYVRYAMGWYRHAPGKERELVAAISWSGGSTYYADSVKGRFTISRDNAKNTVYLQMNSLKPEDTAVYYCAADSHRTRGYARYFYWGQGTQVTVSS | high polyreactivity |
| QVQLVESGGGLVQAGGSLRLSCAASGFIFGLYAMGWYRQAPGKERELVATISWDGGSTYYADSVKGRFTISRDYAKNTVYLQMNSLKPEDTAVYYCAATYLYRSPYVPMDYWGQGTQVTVSS | low polyreactivity |
| QVQLQESGGGPVLAGCSLRLSCAASGTIFVRLDMGWYRQAPGKEREFVATIGSGSSTYYADSVKGSFTISRDNVKNTVYLQMNSLKQEDTAVYYCAVSAAEQSRHYYWDQGTQVTVSS | low polyreactivity |
| QVQLVESGGGLVQAGGSLRLSCAASGITFLHYALGWYRQAPGKERELDAAISVRGGITYYADSVKGRFTISRDNAKNTVYLQMHSLKPEDTAVFYCAADRPKFYNSIYDYWGQGTQVTVSS | low polyreactivity |
| QVQLVESGGGLVQAGGSLRLSCAASGFTFKNYAMGWYRQAPGKEREFVATISSRGGSTYYADSVKGRFTISRDNAKNTVYLQMNSLKPEDTAVYYCATSRYLSRSSEYGYWGQGTQVTVSS | high polyreactivity |
| QVQLVESGGGLVQAGGSLRLSCAASGGTFWKNAMGWYRQAPGKERELVAAIRSSSGNTYYADSVKGRFTISRDNAKNTVYLQMNSLKPEDTAVYSCARRYYDYGYDYYWGQGTQVTVSS | high polyreactivity |
| QVQLVESGGGLVQAGGSLRLSCAASGSNFLTYAMGRYRQAPGKEREFVAAISTSGVSTYYADSVKGRFTISRDNAKNTVYLQMNSLKPEDTAVYFCAAVYDLGYYGPIWAIVLDDYWGQGTQVTVSS | low polyreactivity |
| QVQLVESGGGLVQAGGSLRLSCAASGGIFYSYAMGWYRQAPGKEREFVAAIRRSGGRTYYADSVKGRFTISRDNAKNTVYLQMNSLKPEDTAVYYCAADGWYSGGHDYWGQGTQVTVSS | high polyreactivity |
| QVQLVESGVGLVQAGGSLRLSCAASGSTFGGYAMGWYRQAPGKERELVAAITSRSGRTYYADSVKGRFTISRDIAKNTVYLQMNSLKPEDTAVYYCATPQYPGRDYWGQGTQVTVSS | high polyreactivity |
| QVQLVESGGGLVQAGGSLRLSCAASYAMGWYRQAPGKERELVATITSGGVSTYYADSVKGRFTISRDNAKNTVYLQMNSLKPEDTAVYYCAATASHSTSADYDYWGQGTQVTVSS | low polyreactivity |
| QVQLVESGGGLVQAGGSLRLSCAASGFIFRLYTMGLYRQAPGKERELVARITRGDSTNYADSVKGRFTISRDNAQNTVYLQMNCLYPEDTAVYYCAKLHRGLPYYSFYRGYYYWGQVTQVTVSS | low polyreactivity |
| QVQNVESGGGLVQAGGSLRLICAASGSIFDPYAMGRYRQAPGKEMELVAAIRKRGSSTYYADSVKGRFTISRDNAKYTVYLQMNSLKPEDTAVYYCAATWVSVWYRYDYWGQGTQVTVSA | high polyreactivity |
| QVQLVESGGGIVQAGGSLRLSCAASGSTFEANAMGWYRQARGKERELVAAISSGDRTNYADSVKGRFTISRDNAKNTVYLQLNSLKPEDNAVYFCAAPTDSYYEFDYWGQGTQGTVSS | low polyreactivity |
| QVQLVESGGGLVQAGGSLRLSCAASGFIFSSYAMGWYRQAPGKEREFVAVISTGGGSTYYADSVKGRFTISRDNAKITVYLQMNSLKPEDTAVYYCAAKLYDSGGRYWYDYWGQGTQVTVSS | high polyreactivity |
| QVQLVESGGCLVQAGGSLRLSCYASGIIFAWYAMGWYRQAPGKERQLVAAISYSGCTTYYADSVKWRFTISRDNAKNTVYFKMNSLKPVDTAVYYCAALLHHFFTYDYWGQGTQVTVSS | low polyreactivity |
| QVQLVESGVGVVQAGGSLRLSCAASGRIFYGYAMGWYRQAPGKERELVAAISRGGTRTFYADSVKGRFTISRDNAKNTVYVQMNSLKPEDTAVYYCAARKRDFYSGYEYYYWGQGTQVTVSS | high polyreactivity |
| QVQLVESGGGLVQAGGSLRLSCAASGRTTWIYAMGWYRQAPGKERELVAVISKRGGNTYYADSVKGRFTISRDNAKNTVYLQMNSLKPADTAVYYCAAAGVYGSYDYWGQGTQVTVSS | high polyreactivity |
| QVQLVESGGGLVQAGGSLRLSCAASGSTFVRYAMGWYRQAPGKERELVAAISGGGSTSYADSVKGRFTISRDNAKNTVYLQMNSLKPEDTAVYFCAKAGYRSEFEYWGQGTQVTLSS | low polyreactivity |
